# Bridge positions count the residues as written; N and C are the ends. Square brackets hold non-standard residues; d marks the D form. Ends that are not written are not given here. * marks the point of attachment. X8 = 4‑(carboxymethyl)piperazine‑1‑carbonyl, O=C(O)CN1CCN(C(=O)*)CC1; Phe(4-COOH) = N[C@@H](Cc1ccc(C(=O)O)cc1)C(=O)O; Bip = N[C@@H](Cc1ccc(-c2ccccc2)cc1)C(=O)O; 4Pal = N[C@@H](Cc1ccncc1)C(=O)O; Tic = O=C(O)[C@@H]1Cc2ccccc2CN1; βAla = NCCC(=O)O
# Key:
# BMP7 = molecular target: T1, BMP7 (Homo sapiens, UniProt P18075); assay: BMP7 signal transduction inhibitory activity: SMAD1 phosphorylation by BMP7 stimulus, A549 cells; type: cell-based; conditions: inhibition of SMAD1 phosphorylation by BMP7 stimulus, AlphaLISA, A549 cells; class by peptide concentration zone
# T1 sequence (P18075 293-431): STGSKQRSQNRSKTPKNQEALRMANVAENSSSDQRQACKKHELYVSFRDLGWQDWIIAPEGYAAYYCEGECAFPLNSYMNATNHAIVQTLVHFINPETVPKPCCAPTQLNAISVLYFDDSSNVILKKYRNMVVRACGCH
# Description: In the present Example, BMP7 signal transduction inhibitory activity of each peptide consisting of an amino acid sequence set forth in any of SEQ ID NOs: 5 to 240 and 243 to 421 synthesized in Example 10 was verified by phosphorylation of SMAD1 caused by BMP7 stimulus. The evaluation was performed using 10 nM of BMP7 instead of BMP 4. Regarding SEQ ID NOs: 5 to 240, the concentrations of the peptides synthesized in the same manner as in Example 2 (shown as 2 in the row of Synthesis) were 1 nM, 10 nM, and 100 nM, and the concentrations of the peptides synthesized in the same manner as in Example 1 (shown as 1 in the row of Synthesis) were 10 nM, 100 nM, and 1,000 nM, similarly with Example 11. […] Regarding SEQ ID NOs: 243 to 273 and SEQ ID NOs: 299 to 321, the test was performed at the concentrations (10, 100, 1,000 nM) described in Table 6. […] Regarding SEQ ID NOs: 274 to 298, the test was performed at the concentrations (100, 300, 1,000 nM) described in Table 6. […] Regarding SEQ ID NOs: 322 to 370 and SEQ ID NOs: 393 to 421, the test was performed at the concentrations (1, 10, 100 nM). […] Regarding SEQ ID NOs: 371 to 391, the test was performed at the concentrations (10, 30, 90 nM). […] The evaluation tests of the signal transduction inhibitory activities of SEQ ID NOs: 87, 177, and 181 are as follows. Specifically, the inhibitory activity of BMP4 was evaluated in the same manner as in Example 11 that used A549 cells. Eight concentrations of the peptides were used at a common ratio of 1/3 starting from 2 nM. The inhibitory activity of BMP7 was evaluated in the same manner as in Example 12. Eight concentrations of the peptides were used at a common ratio of 1/3 starting from 100 nM. Note that recombinant Human Noggin Protein (R&D) as a positive control was used at the same concentration as that of the peptide. […] The inhibitory activity of BMP7 was evaluated using eight concentrations of the peptides at a common ratio of 1/3 starting from 1,000 nM in the same manner as in Example 12.
# BMP4 = molecular target: T2, BMP4 (Homo sapiens, UniProt P12644); assay: BMP4 signal transduction inhibitory activity: SMAD1 phosphorylation by BMP4 stimulus, AlphaLISA SureFire, A549 cells; type: cell-based; conditions: inhibition of SMAD1 phosphorylation by BMP4 stimulus, AlphaLISA, A549 cells; class by peptide concentration zone
# T2 sequence (P12644 293-408): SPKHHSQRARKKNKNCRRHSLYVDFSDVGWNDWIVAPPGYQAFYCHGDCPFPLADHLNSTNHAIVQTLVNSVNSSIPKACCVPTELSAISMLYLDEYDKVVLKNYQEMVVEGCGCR
# Description: In the present Example, a BMP4 signal transduction inhibitory activity of each peptide consisting of an amino acid sequence set forth in any of SEQ ID NOs: 5 to 240 and 243 to 421 synthesized in Example 10 was verified by phosphorylation of SMAD1 caused by BMP4 stimulus. A549 cells were cultured in MEM (Thermo Fisher Scientific) containing 10% FBS (Thermo Fisher Scientific), 1×Non-essential amino acids (Thermo Fisher Scientific), and 50 μg/mL Gentamicin. After TrypLE (Gibco) was used to peel the cells, seeding was performed in a 96-well plate for adhesion cells so that the number of cells would be 20,000 per well, followed by culturing for 48 hours. After the cells were cultured as described above, the culture medium was replaced with a peptide solution or recombinant Human Noggin Protein (R&D) solution as a positive control diluted to various concentrations in a nutrition-starved culture medium containing 0.1% BSA (Sigma) instead of FBS Thirty minutes after culturing, […], to stimulate it for 60 minutes. The culture medium was removed and the cells were lysed with Lysis Buffer provided with AlphaLISA (registered trademark) SureFire (registered trademark) Ultra SMAD1 (p-[…]/465) Assay kit (PerkinElmer). According to the protocol of the kit, a signal was detected using SpectraMax (registered trademark) Paradigm (registered trademark) multimode microplate reader (Molecular Devices). The obtained signal was analysed using GraphPad Prism (GraphPad Software). The % inhibition was calculated by considering non-stimulation as 100% inhibition and BMP stimulation only as 0% inhibition. Regarding SEQ ID NOs: 5 to 187, the concentrations of the peptides synthesized in the same manner as in Example 2 (shown as 2 in the row of Synthesis) were 0.02 nM, 0.2 nM, and 2 nM, and the concentrations of the peptides synthesized in the same manner as in Example 1 (shown as 1 in the row of Synthesis) were 0.2 nM, 2 nM, and 20 nM. The evaluation results were based on the results of evaluation using the peptides synthesized in the same manner as in Example 2. […] Regarding SEQ ID NOs: 243 to 321, the test was performed at the concentrations described in Table 6. […] Regarding SEQ ID NOs: 322 to 421, the test was performed at the concentrations described in Table 7. […] The evaluation tests of the signal transduction inhibitory activities of SEQ ID NOs: 87, 177, and 181 are as follows. Specifically, the inhibitory activity of BMP4 was evaluated in the same manner as in Example 11 that used A549 cells. Eight concentrations of the peptides were used at a common ratio of 1/3 starting from 2 nM. The inhibitory activity of BMP7 was evaluated in the same manner as in Example 12. Eight concentrations of the peptides were used at a common ratio of 1/3 starting from 100 nM. Note that recombinant Human Noggin Protein (R&D) as a positive control was used at the same concentration as that of the peptide. […] The inhibitory activity of BMP7 was evaluated using eight concentrations of the peptides at a common ratio of 1/3 starting from 1,000 nM in the same manner as in Example 12.
Substance,aLISA BMP7 (BMP7),aLISA BMP4 (BMP4)
41 ({CH2CO}-A[Tic]VYVDK[Bip]PYP[Bip]Y[Phe(4-COOH)][Phe(4-COOH)]SCG-NH2; thioether N-17) [compound 41],ND (the inhibitory activity was less than 30% at the maximum concentration evaluated),C (showed an inhibitory activity of less than 50% in 0.2 nM-addition zone and showed an inhibitory activity of 50% or more in 2 nM-addition zone were defined as B or C)
42 (Ac-AKVYVDK(Ac)[Bip]PYP[Bip]Y[Phe(4-COOH)][Phe(4-COOH)]SCG-NH2; thioether (positions not given here); not fully specified (bridges)) [compound 42],ND (the inhibitory activity was less than 30% at the maximum concentration evaluated),A (showed an inhibitory activity of 50% or more in a zone to which the peptide was added to in an amount of 0.2 nM)
43 (Ac-AKVYVD[4Pal][Bip]PYP[Bip]Y[Phe(4-COOH)][Phe(4-COOH)]SCG-NH2; thioether (positions not given here); not fully specified (bridges)) [compound 43],ND (the inhibitory activity was less than 30% at the maximum concentration evaluated),C (showed an inhibitory activity of less than 50% in 0.2 nM-addition zone and showed an inhibitory activity of 50% or more in 2 nM-addition zone were defined as B or C)
45 (Ac-AK(X8)VYVK(X8)K[Bip]PYP[Bip]Y[Phe(4-COOH)][Phe(4-COOH)]SCG-NH2; thioether (positions not given here); not fully specified (bridges)) [compound 45],ND (the inhibitory activity was less than 30% at the maximum concentration evaluated),A (showed an inhibitory activity of 50% or more in a zone to which the peptide was added to in an amount of 0.2 nM)
46 (ARVYVDR[Bip]PYP[Bip]Y[Phe(4-COOH)][Phe(4-COOH)]SC) [compound 46],ND (the inhibitory activity was less than 30% at the maximum concentration evaluated),A (showed an inhibitory activity of 50% or more in a zone to which the peptide was added to in an amount of 0.2 nM)
47 (Ac-ARVYVDR[Bip]PYP[Bip]Y[Phe(4-COOH)][Phe(4-COOH)]SC[βAla][dE]-OH; thioether (positions not given here); not fully specified (bridges)) [compound 47],ND (the inhibitory activity was less than 30% at the maximum concentration evaluated),A (showed an inhibitory activity of 50% or more in a zone to which the peptide was added to in an amount of 0.2 nM)
48 (Ac-ARVYVDR[Bip]PYP[Bip]Y[Phe(4-COOH)][Phe(4-COOH)]SC[βAla]K-NH2; thioether (positions not given here); not fully specified (bridges)) [compound 48],ND (the inhibitory activity was less than 30% at the maximum concentration evaluated),C (showed an inhibitory activity of less than 50% in 0.2 nM-addition zone and showed an inhibitory activity of 50% or more in 2 nM-addition zone were defined as B or C)
49 (Ac-ARVYVDR[Bip]PYP[Bip]Y[Phe(4-COOH)][Phe(4-COOH)]SC[βAla]-PEG12Me; thioether (positions not given here); not fully specified (bridges)) [compound 49],ND (the inhibitory activity was less than 30% at the maximum concentration evaluated),C (showed an inhibitory activity of less than 50% in 0.2 nM-addition zone and showed an inhibitory activity of 50% or more in 2 nM-addition zone were defined as B or C)
50 (Ac-ARVYVDR[Bip]PYP[Bip]Y[Phe(4-COOH)][Phe(4-COOH)]SC[βAla]K(OCOmPEG10000)-NH2; thioether (positions not given here); not fully specified (bridges)) [compound 50],B (showed less than 50% of inhibitory activity in 1 nM-addition zone and showed 50% or more of inhibitory activity in 10 nM-addition zone),D (showed inhibitory activity of less than 50% in 2 nM-addition zone)

# Source: patent US20250361274A1, “PEPTIDE AND PEPTIDE-CONTAINING AGENT” (PEPTIDREAM INC., priority 2022, published 2025)
